According to PMC10397247:

T1: 4H3907-bH
T1 chain: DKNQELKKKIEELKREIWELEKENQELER

T2: 4H470-bH
T2 chain: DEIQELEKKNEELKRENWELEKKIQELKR

T3: 4H3961-bH
T3 chain: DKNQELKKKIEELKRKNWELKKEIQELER

T4: 4H344-bH
T4 chain: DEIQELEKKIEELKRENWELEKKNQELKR

T5: 4H363-bH
T5 chain: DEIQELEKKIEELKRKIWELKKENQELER

T6: O3-bP
T6 chain: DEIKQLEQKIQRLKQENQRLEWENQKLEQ

T7: O8-bP
T7 chain: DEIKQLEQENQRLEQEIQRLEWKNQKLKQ

T8: O15-bP
T8 chain: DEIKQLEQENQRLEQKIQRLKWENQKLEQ

T9: O4-bP
T9 chain: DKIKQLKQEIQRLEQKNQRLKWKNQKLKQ

T10: O9-bP
T10 chain: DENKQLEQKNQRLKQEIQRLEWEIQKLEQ

T11: O16-bP
T11 chain: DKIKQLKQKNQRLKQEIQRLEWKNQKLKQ

T12: O14-bP
T12 chain: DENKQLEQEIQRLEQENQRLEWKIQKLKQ

T13: O13-bP
T13 chain: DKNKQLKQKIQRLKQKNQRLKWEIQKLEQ

T14: O7-bP
T14 chain: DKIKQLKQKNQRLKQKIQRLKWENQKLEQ

T15: O2-bP
T15 chain: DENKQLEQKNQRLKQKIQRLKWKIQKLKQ

T16: O5-bP
T16 chain: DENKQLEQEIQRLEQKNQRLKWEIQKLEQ

T17: O6-bP
T17 chain: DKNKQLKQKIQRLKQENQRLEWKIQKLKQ


Assays:
Assay in all cases: two-hybrid library CCNG1;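 note: natural log of median RNA to DNA barcode read ratio; higher means stronger binding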
4H3907-bH = biological target: T1, 4H3907-bH
4H470-bH = biological target: T2, 4H470-bH
4H3961-bH = biological target: T3, 4H3961-bH
4H344-bH = biological target: T4, 4H344-bH
4H363-bH = biological target: T5, 4H363-bH
O3-bP = biological target: T6, O3-bP
O8-bP = biological target: T7, O8-bP
O15-bP = biological target: T8, O15-bP
O4-bP = biological target: T9, O4-bP
O9-bP = biological target: T10, O9-bP
O16-bP = biological target: T11, O16-bP
O14-bP = biological target: T12, O14-bP
O13-bP = biological target: T13, O13-bP
O7-bP = biological target: T14, O7-bP
O2-bP = biological target: T15, O2-bP
O5-bP = biological target: T16, O5-bP
O6-bP = biological target: T17, O6-bP

interaction score (4H3907-bH)	interaction score (4H470-bH)	interaction score (4H3961-bH)	interaction score (4H344-bH)	interaction score (4H363-bH)	interaction score (O3-bP)	interaction score (O8-bP)	interaction score (O15-bP)	interaction score (O4-bP)	interaction score (O9-bP)	interaction score (O16-bP)	interaction score (O14-bP)	interaction score (O13-bP)	interaction score (O7-bP)	interaction score (O2-bP)	interaction score (O5-bP)	interaction score (O6-bP)	Binder
0.791	0.944	0.837	0.843	0.49													DEIQELEKKIEELKRENWELEKKNQELKR [4H344-bH]
					-1.76	-0.609	-0.599	-0.851	-1.05	-1.17	1.35	-2.25	-1.19	-1.3	-0.814	-0.094	DKNKQLKQKIQRLKQKNQRLKWEIQKLEQ [O13-bP]
					-0.787	-2.05	-0.0315	-1.04	-0.215	1.73	-1.46		0.0513	-0.77	1.11	1.82	DENKQLEQEIQRLEQENQRLEWKIQKLKQ [O14-bP]
